Source: PMC5560778

Legend:
[1] = target: NaV1.5 α subunit, DIII LFS voltage clamp fluorometry construct (M1296C), labelled with MTS-TAMRA (human) (UniProt Q14524)
[2] = target: NaV1.5 α subunit, DIV voltage clamp fluorometry construct (S1618C), labelled with MTS-TAMRA (human) (UniProt Q14524)
[3] = target: A1330W mutant NaV1.5 channel in the DIII-M1296C VCF construct, labelled with MTS-TAMRA (human) (UniProt Q14524)
[4] = target: NaV1.5 α subunit, DIII LFS voltage clamp fluorometry construct (M1296C), labelled with MTS-TAMRA (human) (UniProt Q14524); remark: listed apart in the source

β3-NTM β1-C chimera
depolarizing shift of the DIII F-V curve (voltage clamp fluorometry in oocytes), α with chimera against α alone [1]: 22.9 mV

WT NaV β1 subunit (from UniProt Q07699-1 19-218) (natural protein)
depolarizing shift of the DIV F-V curve (voltage clamp fluorometry in oocytes), α with β1 against α alone [2]: 31.3 mV

B1: WT NaV β3 subunit (natural protein)
chain: FPVCVEVPSETEAVQGNPMKLRCISCMKREEVEATTVVEWFYRPEGGKDFLIYEYRNGHQEVESPFQGRLQWNGSKDLQDVSITVLNVTLNDSGLYTCNVSREFEFEAHRPFVKTTRLIPLRVTEEAGEDFTSVVSEIMMYILLVFLTLWLLIEMIYCYRKVSKAEEAAQENASDYLAIPSENKENSAVPVEE
depolarizing shift of the DIII F-V curve (voltage clamp fluorometry in oocytes), A1330W with β3 against A1330W alone [3]: 22.6 mV | depolarizing shift of the DIII F-V curve (voltage clamp fluorometry in oocytes), α with β3 against α alone [4]: 20.7 mV
